Measured values from patent publication US20260042849.

Columns and labels:
[1] = biological target: internally quenched peptide probe with CM 7056 (PEGL, SEQ ID NO: 11)
[2] = biological target: internally quenched peptide probe with CM PMGLK (SEQ ID NO: 64)
[3] = biological target: internally quenched peptide probe with CM 7053 (PQGL, SEQ ID NO: 9)
[4] = biological target: internally quenched peptide probe with CM 7041 (PWGL, SEQ ID NO: 100)
[5] = biological target: internally quenched peptide probe with CM 7054 (PKGL, SEQ ID NO: 108)
[6] = biological target: internally quenched peptide probe with CM 7050 (PRGL, SEQ ID NO: 105)
[7] = biological target: internally quenched peptide probe with CM PMGLKS (SEQ ID NO: 5)
[8] = biological target: internally quenched peptide probe with CM RSPWGL (SEQ ID NO: 182)
[9] = biological target: internally quenched peptide probe with CM 7052 (PLGL, SEQ ID NO: 107)
[10] = biological target: internally quenched peptide probe with CM 7049 (PFGL, SEQ ID NO: 104)
[11] = biological target: internally quenched peptide probe with CM PWGLRS (SEQ ID NO: 181)
[12] = biological target: internally quenched peptide probe with CM APMGLKH (SEQ ID NO: 7)
[13] = biological target: internally quenched peptide probe with CM 7047 (PYGL, SEQ ID NO: 103)
[14] = biological target: internally quenched peptide probe with CM 7051 (PMGL, SEQ ID NO: 106)
[15] = biological target: internally quenched peptide probe with CM 7055 (PHGL, SEQ ID NO: 10)

B1: human recombinant MMP2 (R&D Systems, catalog No: 902-MP) (protein)
chain: YNFFPRKPKWDKNQITYRIIGYTPDLDPETVDDAFARAFQVWSDVTPLRFSRIHDGEADIMINFGRWEHGDGYPFDGKDGLLAHAFAPGTGVGGDSHFDDDELWTLGEGQVVRVKYGNADGEYCKFPFLFNGKEYNSCTDTGRSDGFLWCSTTYNFEKDGKYGFCPHEALFTMGGNAEGQPCKFPFRFQGTSYDSCTTEGRTDGYRWCGTTEDYDRDKKYGFCPETAMSTVGGNSEGAPCVFPFTFLGNKYESCTSAGRSDGKMWCATTANYDDDRKWGFCPDQGYSLFLVAAHEFGHAMGLEHSQDPGALMAPIYTYTKNFRLSQDDIKGIQELYGASPDIDLGTGPTPTLGPVTPEICKQDIVFDGIAQIRGEIFFFKDRFIWRTVTPRDKPMGPLLVATFWPELPEKIDAVYEAPQEEKAVFFAGNEYWIYSASTLERGYPKPLTSLGLPPDVQRVDAAFNWSKNKKTYIFAGDKFWRYNEVKKKMDPGFPKLIADAWNAIPDNLDAVVDLQGGGHSYFFKGAYYLKLENQSLKSVKFGSIKSDWLGC
For B1, which “kcat/KM (M^-1 s^-1)” value [1] is on record?
Its value is “greater than 5×10^2 M^-1 s^-1”.

And the “stated: cleaved (kcat/Km, M-1s-1, bar on a log axis)” value [1]?
Its value is “PEGL, MMP2 bar ends between 1x10^3 and 1x10^4”.

What about the Probe Cleavage (kcat/KM) [2] of the same protein?
Its Probe Cleavage (kcat/KM) is 180000 M⁻¹ s⁻¹.

What about the Probe Cleavage (pM/s) [2] of the same protein?
Its Probe Cleavage (pM/s) is 4690 pM/s.

And the “stated: cleaved (kcat/Km, M-1s-1, bar on a log axis)” value [3]?
The value was “PQGL, MMP2 bar ends between 1x10^4 and 1x10^5”.

And the “stated: cleaved (kcat/Km, M-1s-1, bar on a log axis)” value [4]?
The value was “PWGL, MMP2 bar ends between 1x10^3 and 1x10^4”.

What about the “stated: cleaved (kcat/Km, M-1s-1, bar on a log axis)” value [5] of the same protein?
Its value is “PKGL, MMP2 bar ends between 1x10^4 and 1x10^5”.

What about the “stated: cleaved (kcat/Km, M-1s-1, bar on a log axis)” value [6] of the same protein?
Its value is “PRGL, MMP2 bar ends between 1x10^4 and 1x10^5; the highest MMP2 bar of the ten peptide probes”.

What about the Probe Cleavage (kcat/KM) [7] of the same protein?
The Probe Cleavage (kcat/KM) was 8.5e+06 M⁻¹ s⁻¹.

And the Probe Cleavage (pM/s) [7]?
The Probe Cleavage (pM/s) was 119000 pM/s.

And the Probe Cleavage (kcat/KM) [8]?
The Probe Cleavage (kcat/KM) was 260000 M⁻¹ s⁻¹.

And the Probe Cleavage (pM/s) [8]?
Its Probe Cleavage (pM/s) is 11700 pM/s.

And the “stated: cleaved (kcat/Km, M-1s-1, bar on a log axis)” value [9]?
Its value is “PLGL, MMP2 bar ends between 1x10^4 and 1x10^5”.

And the “kcat/KM (M^-1 s^-1)” value [10]?
Its value is “greater than 5×10^2 M^-1 s^-1”.

What about the “stated: cleaved (kcat/Km, M-1s-1, bar on a log axis)” value [10] of the same protein?
The value was “PFGL, MMP2 bar ends between 1x10^3 and 1x10^4”.

And the Probe Cleavage (kcat/KM) [11]?
The Probe Cleavage (kcat/KM) was 140000 M⁻¹ s⁻¹.

And the Probe Cleavage (pM/s) [11]?
Its Probe Cleavage (pM/s) is 3800 pM/s.

What about the Probe Cleavage (kcat/KM) [12] of the same protein?
The Probe Cleavage (kcat/KM) was 2.7e+06 M⁻¹ s⁻¹.

What about the Probe Cleavage (pM/s) [12] of the same protein?
Its Probe Cleavage (pM/s) is 81700 pM/s.

What about the “kcat/KM (M^-1 s^-1)” value [13] of the same protein?
The value was “greater than 5×10^2 M^-1 s^-1”.

What about the “stated: cleaved (kcat/Km, M-1s-1, bar on a log axis)” value [13] of the same protein?
The value was “PYGL, MMP2 bar ends between 1x10^3 and 1x10^4”.

What about the “stated: cleaved (kcat/Km, M-1s-1, bar on a log axis)” value [14] of the same protein?
Its value is “PMGL, MMP2 bar ends between 1x10^4 and 1x10^5”.

And the “stated: cleaved (kcat/Km, M-1s-1, bar on a log axis)” value [15]?
Its value is “PHGL, MMP2 bar ends just above the 1x10^4 tick”.

B2: human recombinant MT-SP1 (R&D Systems, catalog No: 3946-SEB) (protein)
chain: VVGGTDADEGEWPWQVSLHALGQGHICGASLISPNWLVSAAHCYIDDRGFRYSDPTQWTAFLGLHDQSQRSAPGVQERRLKRIISHPFFNDFTFDYDIALLELEKPAEYSSMVRPICLPDASHVFPAGKAIWVTGWGHTQYGGTGALILQKGEIRVINQTTCENLLPQQITPRMMCVGFLSGGVDSCQGDSGGPLSSVEADGRIFQAGVVSWGDGCAQRNKPGVYTRLPLFRDWIKENTGV
Which Probe Cleavage (kcat/KM) [2] does the source give for B2 here?
Its Probe Cleavage (kcat/KM) is 1600 M⁻¹ s⁻¹.

And the Probe Cleavage (pM/s) [2]?
The Probe Cleavage (pM/s) was 46.1 pM/s.

What about the Probe Cleavage (kcat/KM) [7] of the same protein?
The Probe Cleavage (kcat/KM) was 320000 M⁻¹ s⁻¹.

And the Probe Cleavage (pM/s) [7]?
The Probe Cleavage (pM/s) was 14100 pM/s.

What about the Probe Cleavage (kcat/KM) [8] of the same protein?
The Probe Cleavage (kcat/KM) was 48000 M⁻¹ s⁻¹.

What about the Probe Cleavage (pM/s) [8] of the same protein?
Its Probe Cleavage (pM/s) is 2390 pM/s.

What about the Probe Cleavage (kcat/KM) [11] of the same protein?
The Probe Cleavage (kcat/KM) was 31000 M⁻¹ s⁻¹.

And the Probe Cleavage (pM/s) [11]?
Its Probe Cleavage (pM/s) is 1230 pM/s.

What about the Probe Cleavage (kcat/KM) [12] of the same protein?
Its Probe Cleavage (kcat/KM) is 77000 M⁻¹ s⁻¹.

And the Probe Cleavage (pM/s) [12]?
Its Probe Cleavage (pM/s) is 3330 pM/s.
